Laboratory results: patent US20260015434A1, “ANTIBODY MATERIALS AND METHODS TARGETING MICROBIAL POLYSACCHARIDES” (priority 2022, published 2026)

What was measured:
S. aureus Xen 36 cells = experiment: Binding to planktonic S. aureus, fluorescence microscopy; type: cell-based; details: labeled mAb, 20 μg/mL, fixed planktonic cells
Method: (§1) TG10 binding was evaluated in the PNAG producing strains of S. aureus ATCC 29213 and Xen 36 following overnight culturing with shaking in TSB and TB, respectively. The cells were pelleted, fixed in 4% paraformaldehyde and coated on glass chips. The plated cells were extensively washed followed by incubation with 488-labeled TG10 or 488-labeled F598 prior fluorescent microscopy. For evaluating TG10 and F598 binding with S. aureus, S. aureus […] and Xen 36 were grown in TSB and LB overnight, respectively. Cells were pelleted and fixed in 4% paraformaldehyde. Cells were calibrated to OD 0.5. 100 μl suspension were used for each sample. Each sample were pelleted and resuspended in 20 μg/mL mAb TG10, F598 or both. After shaking for 2 hours under ambient temperature, cells were pelleted, washed and transferred to glass chips and allowed to air dry. A cover slide was mounted via anti-fade media.

[1] = test system: S. aureus ATCC 29213 cells; experiment: as above; type: cell-based; details: labeled mAb, 20 μg/mL, fixed planktonic cells
Method: as §1

[2] = biological target: PNAG 1 (glucosamine tetrasaccharide with an N-acetyl glucosamine at the reducing end); experiment: Glycan microarray apparent KD; type: binding; details: PNAG 1 conjugate on the microarray
Method: (§2) Neoglycoprotein (NGP) microarray fabrication was performed as follows. Several NGP microarrays were constructed as previously described. Two large arrays (8 duplicate arrays per slide) composed of 815 and 870 neoglycoproteins, glycoproteins, glycopeptide conjugates, and controls were constructed and used for the experiments in this report. Additionally, a PNAG-focused array (16 duplicates per slide) with 49 array components was fabricated and used to determine apparent KD values. Array component parent stocks were diluted to 125-200 μg/mL into print buffer (1×PBS buffer with 2.5% (v/v) glycerol, 0.0005% (v/v) Triton-X 100, 0.0005 μg/mL soluble print dye 0.05 μg/mL Atto 532 (Sigma 06699). Formulated components were printed in duplicate onto 2D-Epoxy functionalized glass slides (Poly-An #104-00-221) or SuperEpoxy 2 microarray slides (ArrayIt) using an Arrayit NanoPrint LM60 arrayer at 60% humidity. Following the print, slides were scanned in a microarray fluorescence scanner (Innopsys, InnoScan 1100 AL) to validate that array components were successfully deposited onto the slide surface. […]
(§3) Antibody selectivity and apparent KD were determined using a NGP microarray. […] Selectivity and affinity of most mAbs were measured on the full array. […] Raw data was analyzed using GenePix 7.0 software as previously described. […]

[3] = biological target: PNAG 16 (glucosamine tetrasaccharide with an N-acetyl glucosamine at the terminal end); experiment: Glycan microarray apparent KD; type: binding; details: PNAG 16 conjugate on the microarray
Method: as §2, §3

S. epidermidis biofilms = experiment: S. epidermidis biofilm staining, confocal microscopy; type: cell-based, Staphylococcus epidermidis; details: fluorescently labeled antibodies at 5 μg/ml, fixed 20 hr biofilms
Method: For antibody labeling, recombinantly expressed antibodies were labeled with fluorescent dyes using Invitrogen antibody dye labeling kits. Concentration and labeling efficiency was confirmed using nanodrop. For S. epidermidis biofilm formation and confocal microscopy, Staphylococcus epidermidis (Winslow and Winslow) Evans ATCC 14990 was resuspended and cultured on tryptic soy broth agar plates according to ATCC recommended procedures. Single colonies were picked into 5 mL Tryptic Soy Broth (TSB) supplemented with 0.25% glucose (BD™ TSB) and bacteria were cultured overnight at 37 C with shaking (200 RPM). The overnight culture was diluted 1:100 into aerated TSB26. 400 μl (microliters) of the aerated culture was pipetted into 8-well chambered coverglass lab-tek II system suitable for confocal microscopy. Biofilms were allowed to mature for 20 hrs @37C without agitation. Mature films were washed 2×500 μl PBS to remove planktonic bacteria. The films were fixed in 4% paraformaldehyde in PBS for 30 minutes, washed 2×500 μl PBS and stained with fluorescently labeled antibodies diluted to 5 μg/ml. The labeled films were then washed 2×500 μl PBS and then stained for 10 minutes with Hoechst stain @ 10 μg/ml. The films were washed a final time and kept under PBS for imaging. […]

[4] = test system: Staphylococcus epidermidis (ATCC 35984) suspension culture; experiment: Labeled antibody incubation with suspension cultures of microorganisms; type: cell-based; details: Alexa Fluor 488 labeled TG10; data not shown
[5] = biological target: PNAG 0 (fully deacetylated glucosamine pentasaccharide conjugate); experiment: Glycan microarray binding / apparent KD; details: PNAG 0 conjugate on the microarray
Method: Neoglycoprotein (NGP) microarray fabrication was performed as follows. Several NGP microarrays were constructed as previously described. Two large arrays (8 duplicate arrays per slide) composed of 815 and 870 neoglycoproteins, glycoproteins, glycopeptide conjugates, and controls were constructed and used for the experiments in this report. Additionally, a PNAG-focused array (16 duplicates per slide) with 49 array components was fabricated and used to determine apparent KD values. Array component parent stocks were diluted to 125-200 μg/mL into print buffer (1×PBS buffer with 2.5% (v/v) glycerol, 0.0005% (v/v) Triton-X 100, 0.0005 μg/mL soluble print dye 0.05 μg/mL Atto 532 (Sigma 06699). Formulated components were printed in duplicate onto 2D-Epoxy functionalized glass slides (Poly-An #104-00-221) or SuperEpoxy 2 microarray slides (ArrayIt) using an Arrayit NanoPrint LM60 arrayer at 60% humidity. Following the print, slides were scanned in a microarray fluorescence scanner (Innopsys, InnoScan 1100 AL) to validate that array components were successfully deposited onto the slide surface. Binding profiles for a representative set of lectins and antibodies were used as QC for each printed microarray batch. The printed NGP microarrays were stored under vacuum at −20° C.
Antibody selectivity and apparent KD were determined using a NGP microarray. A pre-assay scan was performed to control for missing features. Selectivity and affinity of most mAbs were measured on the full array. A focused array was used to acquire an apparent KD measurement. A slide module (8 well for full array and 16-well for focused array) was mounted onto each slide and blocking buffer (3% BSA in PBS, pH 7.4) was applied to each well of the array. Blocking was performed overnight at 4° C. mAbs were serial diluted in binding buffer (1% BSA in PBST, pH 7.4). Following the block, wells were washed 4× with wash buffer (PBST, PBS with 0.05% tween-20). Primary mAb incubation was performed for 2.5 hours at 37° C. The wells were washed 5× with wash buffer. A CY3-labeled secondary antibody specific for the Fc portion of human IgG was diluted 500 fold into binding buffer and added to each array well (Jackson ImmunoResearch, 109-165-098). Secondary mAb incubation was performed for 1.5 hours at 37° C. Wells were washed 5× with wash buffer. Slides were removed from the slide module and submerged in wash buffer for 5 minutes. Washed slides were dried by centrifugation @ 1000×g in a centrifuge quipped with a swing bucket rotor. Fluorescent scans were obtained at multiple PMT values to maximize dynamic range. Raw data was analyzed using GenePix 7.0 software as previously described. Selectivity profiles and apparent KD curves were plotted in excel and Graphpad Prism. Apparent Kos were determined using one-site specific binding algorithm in Graphpad Prism.

[6] = test system: PNAG conjugates on the array (dPNAG, PNAG and intermediate levels of deacetylation); experiment: Neoglycoprotein (glycan) microarray binding, 816-component array
S. aureus ATCC 29213 = experiment: Passive immunization, S. aureus lethal dose challenge in a murine model; type: in vivo, Balb/C mice; details: 200 μg mAb intraperitoneally one hour before 200 million cfu via tail vein
Method: An in vivo study was performed to evaluate the prophylactic efficacy of TG10 against a S. aureus lethal dose challenge in a murine model of infection. TG10 and F598 were evaluated as monotherapies and as a mAb cocktail. […] The combination provided 90% survival.
Balb/C mice aged 12 weeks (n=10/group) were passively immunized with 200 μg F598, 200μ g TG10, or 100μ g F598+100μ g TG10 in 100 μl PBS intraperitoneally. 100 μl PBS was injected intraperitoneally in the negative control group (n=5). One hour later, 200 million cfu S. aureus ATCC 29213 cells were administrated via tail vein. Mice condition was monitored. A mouse unable to move or which lost more than 20% body mass was euthanized. Survival was better in all three groups when compared to the PBS control arm.

B1: TG10: Antibody, HC SEQ ID NO: 3, LC SEQ ID NO: 12; primer mutations in ADI-45379 reverted to germline (antibody, V domains shown)
VH: EVQLVESGGGLVQPGGSLRLSCAVSGFPFSSYWMSWVRQAPGKGLEWVANIKEDGSEKYYVDSVKGRFTISRDNAKNSLYLQMNSLRAEDTAVYYCATDPDVGLSDSWGQGTLVTVSS
VL: EIVLTQSPGTLSLSPGDRATHSCRASQSVSRSYLAWYQQKPGQTPRLFIYGASNRATGIPDRFSGSGSGTYFTLTISRLEPEDFAVYYCQQYDSAPDTFGQGTRLEIK
modifications: TG10 Heavy Chain Variable Region; TG10 Light Chain Variable Region
notes: primer mutations in ADI-45379 reverted to germline
S. aureus Xen 36 cells
  binding to cells: bound
[1]
  binding to cells: bound
[2]
  Kd: 11.5 nM
[3]
  Kd: 19 nM
S. epidermidis biofilms
  localization of labeled antibody within the biofilm: isolated to core cells within the microcolonies
[4]
  fluorescent microscopy of spun-down culture: strong fluorescent signal
[5]
  Kd: 8.3 nM
[5]; given in mass concentration
  apparent KD: 1.25 µg/mL
[6]; 816-component array
  selectivity among PNAG glycoconjugates on the array: excellent selectivity for the highly deacetylated PNAG conjugates PNAG 0 and PNAG 1
[6]; ability to bind both dPNAG and PNAG and intermediate levels of deacetylation
  PNAG Binding on Array: Yes
S. aureus ATCC 29213
  survival compared to the PBS control group: increased survival
